We go through five molecules from PMC11115230, “Mitotic deacetylase complex (MiDAC) recognizes the HIV-1 core promoter to control activated viral gene expression”.

In data set [1] the target is T1, DNTTIP1 (TdIF1), His-tagged (human, UniProt Q9H147 1-329).
T1 sequence: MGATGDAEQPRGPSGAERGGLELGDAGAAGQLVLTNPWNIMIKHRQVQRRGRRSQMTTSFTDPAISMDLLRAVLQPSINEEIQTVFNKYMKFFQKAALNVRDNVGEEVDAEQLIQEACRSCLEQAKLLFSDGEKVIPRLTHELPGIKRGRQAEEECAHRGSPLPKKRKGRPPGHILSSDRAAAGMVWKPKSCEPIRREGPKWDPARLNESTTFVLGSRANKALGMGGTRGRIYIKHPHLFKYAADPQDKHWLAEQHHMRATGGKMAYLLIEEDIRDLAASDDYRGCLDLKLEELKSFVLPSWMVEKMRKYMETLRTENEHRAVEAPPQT
Nature of the data set: fluorescence anisotropy; Hill n 1.78; error = fit SE x15; Anisotropy: 15 nM DNA, 10 mM Na-PO4 pH 6.5, 150 mM KCl, 250 uM TCEP, 5% glycerol. Pull-down: 20 mM HEPES pH 7.9, 100 mM KCl, 10% glycerol, 0.05% CHAPS, poly(dIdC), oligo B, acetylated BSA, room temperature. The settings on record: protein: recombinant; tags: N-term 6xHis; chain copies: 2; label: fluorescein on first T of sense strand; blunt. For orientation: Polarisation of emitted light reports the rotation of a fluorescent probe.

Data set [2] addresses T1, DNTTIP1 (TdIF1), His-tagged. Nature of the data set: CD thermal denaturation; equimolar DNA; unit inferred, M assumed; Anisotropy: 15 nM DNA, 10 mM Na-PO4 pH 6.5, 150 mM KCl, 250 uM TCEP, 5% glycerol. Pull-down: 20 mM HEPES pH 7.9, 100 mM KCl, 10% glycerol, 0.05% CHAPS, poly(dIdC), oligo B, acetylated BSA, room temperature. The settings on record: protein: recombinant; tags: N-term 6xHis; chain copies: 2; blunt.

The target is the same in data set [3]. Nature of the data set: fluorescence anisotropy; Hill n 2.39; error = fit SE x15; Anisotropy: 15 nM DNA, 10 mM Na-PO4 pH 6.5, 150 mM KCl, 250 uM TCEP, 5% glycerol. Pull-down: 20 mM HEPES pH 7.9, 100 mM KCl, 10% glycerol, 0.05% CHAPS, poly(dIdC), oligo B, acetylated BSA, room temperature. The settings on record: protein: recombinant; tags: N-term 6xHis; chain copies: 2; label: fluorescein on first T of sense strand; blunt.

For data set [4] the target is unchanged. Kind of data set: equimolar DNA; Tm 32.7 to 43.5 C; unit inferred, M assumed; Anisotropy: 15 nM DNA, 10 mM Na-PO4 pH 6.5, 150 mM KCl, 250 uM TCEP, 5% glycerol. Pull-down: 20 mM HEPES pH 7.9, 100 mM KCl, 10% glycerol, 0.05% CHAPS, poly(dIdC), oligo B, acetylated BSA, room temperature. The settings on record: protein: recombinant; tags: N-term 6xHis; chain copies: 2; label: fluorescein on first T of sense strand (anisotropy only); blunt.

The target is the same in data set [5]. Kind of data set: fluorescence anisotropy; Hill n 1.89; error = fit SE x15; Anisotropy: 15 nM DNA, 10 mM Na-PO4 pH 6.5, 150 mM KCl, 250 uM TCEP, 5% glycerol. Pull-down: 20 mM HEPES pH 7.9, 100 mM KCl, 10% glycerol, 0.05% CHAPS, poly(dIdC), oligo B, acetylated BSA, room temperature. The settings on record: protein: recombinant; tags: N-term 6xHis; chain copies: 2; label: fluorescein on first T of sense strand (anisotropy only); blunt.

The target is the same in data set [6]. Nature of the data set: equimolar DNA; Tm 39.2 C; unit inferred, M assumed; Anisotropy: 15 nM DNA, 10 mM Na-PO4 pH 6.5, 150 mM KCl, 250 uM TCEP, 5% glycerol. Pull-down: 20 mM HEPES pH 7.9, 100 mM KCl, 10% glycerol, 0.05% CHAPS, poly(dIdC), oligo B, acetylated BSA, room temperature. The settings on record: protein: recombinant; tags: N-term 6xHis; chain copies: 2; label: fluorescein on first T of sense strand (anisotropy only); blunt.

The target is the same in data set [7]. Kind of data set: fluorescence anisotropy; Hill n 1.63; error = fit SE x15; Anisotropy: 15 nM DNA, 10 mM Na-PO4 pH 6.5, 150 mM KCl, 250 uM TCEP, 5% glycerol. Pull-down: 20 mM HEPES pH 7.9, 100 mM KCl, 10% glycerol, 0.05% CHAPS, poly(dIdC), oligo B, acetylated BSA, room temperature. The settings on record: protein: recombinant; tags: N-term 6xHis; chain copies: 2; label: fluorescein on first T of sense strand (anisotropy only); blunt.

In general, Kd refers to the free concentration of one partner at which half of the binding sites on the other are occupied at equilibrium, for simple one-to-one binding.

B1: Scr_25 (dsDNA)
DNA 1: AGATCAGCAGAGCTCTGGTAGCTAT
DNA 2: ATAGCTACCAGAGCTCTGCTGATCT
As for B1, the Kd in data set [1] worked out at 156 ± 15.6 nM.

B2: DNTTIP_cons (dsDNA)
DNA 1: CGCCAAATAAAAGTTGCATGGTCG
DNA 2: CGACCATGCAACTTTTATTTGGCG
In the case of B2, the Kd in data set [2] is ~7.38 nM.

B3: CATAKO_25 (dsDNA)
DNA 1: AGATGCTGAGAGCTCGCAGCTGCTT
DNA 2: AAGCAGCTGCGAGCTCTCAGCATCT
Turning to B3, the equilibrium dissociation constant (Kd) in data set [3] worked out at 117 ± 15.6 nM.

B4: TASHET_25 wt (dsDNA)
DNA 1: AGATGCTGCATATAAGCAGCTGCTT
DNA 2: AAGCAGCTGCTTATATGCAGCATCT
Take B4: the values for the Kd in data set [4] and in data set [5] were ~0.392 nM and 51.1 ± 4.2 nM, respectively.

B5: ATCC_25 (dsDNA)
DNA 1: AGATGATCCATATAAGGATATCCTT
DNA 2: AAGGATATCCTTATATGGATCATCT
In the case of B5, the dissociation constant Kd is ~791 nM in data set [6] and 137 ± 16.6 nM in data set [7].
